Source: the supplement of paper PMC6757056
± gives the standard deviation of the averaged measurements.

B1: library; a variant is named by its letters at N, in order (parent)
chain: GCUGUCACCGGUGUAUUACCCUAGUGGUCGACCGGUCUGAUGAGUCUNNNNNNAGACGAAACAGC

Legend:
hypoxanthine [1] = variants of: B1; assay: normalized RNA/DNA level with ligand (relative to sTRSVctl = 100) (log10 (% of sTRSVctl)); ligand: hypoxanthine (xanthine aptamer); higher = less ribozyme self-cleavage, higher mRNA level; conditions: ligand concentration (+) RNA-Seq: 5 mM, HEK293T, reporter: mCherry (pCS4076), ligand present: yes
Outline: (§1)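 For each 6-well well, 4 µg of library plasmid encoding mCherry-linked ribozyme switches, or eGFP-linked ones in some ligand experiments, was transfected into HEK293T. Any ligand was added 1 h before transfection, and RNA was extracted with EDTA 72 h after it, then reverse-transcribed, amplified, barcoded and sequenced. RNA level was obtained by dividing RNA reads by DNA reads, normalizing to a spiked-in non-cleaving sequence or to the top sequences, then scaling and log-transforming. The top set was 25 sequences, scaling was ×100 with log10, and ≥100 DNA reads were required.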

hypoxanthine [2] = variants of: B1; assay: normalized RNA/DNA level without ligand (relative to sTRSVctl = 100) (log10 (% of sTRSVctl)); ligand: hypoxanthine (xanthine aptamer); higher = less ribozyme self-cleavage, higher mRNA level; conditions: HEK293T, reporter: mCherry (pCS4076), ligand present: no
Outline: as §1

Variant | normalized RNA/DNA level with ligand (log10) (hypoxanthine [1]) | normalized RNA/DNA level without ligand (log10) (hypoxanthine [2])
GCUGUCACCGGUGUAUUACCCUAGUGGUCGACCGGUCUGAUGAGUCUUUUCAAAGACGAAACAGC | 1.9299 ± 0.00082 | 1.866 ± 0.015
GCUGUCACCGGUGUAUUACCCUAGUGGUCGACCGGUCUGAUGAGUCUUUUCAUAGACGAAACAGC | 1.915 ± 0.013 | 1.838 ± 0.0065
GCUGUCACCGGUGUAUUACCCUAGUGGUCGACCGGUCUGAUGAGUCUUUUCACAGACGAAACAGC | 1.9884 ± 0.0013 | 1.91 ± 0.031
GCUGUCACCGGUGUAUUACCCUAGUGGUCGACCGGUCUGAUGAGUCUUUUCAGAGACGAAACAGC | 1.9 ± 0.021 | 1.71 ± 0.042
GCUGUCACCGGUGUAUUACCCUAGUGGUCGACCGGUCUGAUGAGUCUGUUCAGAGACGAAACAGC | 1.82 ± 0.054 | 1.55 ± 0.057
GCUGUCACCGGUGUAUUACCCUAGUGGUCGACCGGUCUGAUGAGUCUGUUCAUAGACGAAACAGC | 1.908 ± 0.016 | 1.783 ± 0.012
GCUGUCACCGGUGUAUUACCCUAGUGGUCGACCGGUCUGAUGAGUCUGUUCACAGACGAAACAGC | 1.96 ± 0.05 | 1.85 ± 0.023
GCUGUCACCGGUGUAUUACCCUAGUGGUCGACCGGUCUGAUGAGUCUGUUAUUAGACGAAACAGC | 1.971 ± 0.0054 | 1.916 ± 0.0092
GCUGUCACCGGUGUAUUACCCUAGUGGUCGACCGGUCUGAUGAGUCUGUUAUCAGACGAAACAGC | 1.96 ± 0.049 | 1.86 ± 0.037
GCUGUCACCGGUGUAUUACCCUAGUGGUCGACCGGUCUGAUGAGUCUUUUAUGAGACGAAACAGC | 1.92 ± 0.027 | 1.772 ± 0.014
GCUGUCACCGGUGUAUUACCCUAGUGGUCGACCGGUCUGAUGAGUCUUUUAUCAGACGAAACAGC | 1.97 ± 0.03 | 1.99 ± 0.021
GCUGUCACCGGUGUAUUACCCUAGUGGUCGACCGGUCUGAUGAGUCUCUUAUGAGACGAAACAGC | 1.91 ± 0.039 | 1.91 ± 0.018
GCUGUCACCGGUGUAUUACCCUAGUGGUCGACCGGUCUGAUGAGUCUCUUAUCAGACGAAACAGC | 1.98 ± 0.02 | 1.987 ± 0.013
GCUGUCACCGGUGUAUUACCCUAGUGGUCGACCGGUCUGAUGAGUCUCUUAUUAGACGAAACAGC | 1.95 ± 0.047 | 1.872 ± 0.005
GCUGUCACCGGUGUAUUACCCUAGUGGUCGACCGGUCUGAUGAGUCUCUUCAGAGACGAAACAGC | 1.92 ± 0.08 | 1.84 ± 0.07
GCUGUCACCGGUGUAUUACCCUAGUGGUCGACCGGUCUGAUGAGUCUCUUCAAAGACGAAACAGC | 1.959 ± 0.013 | 1.82 ± 0.05
GCUGUCACCGGUGUAUUACCCUAGUGGUCGACCGGUCUGAUGAGUCUCUUCAUAGACGAAACAGC | 1.921 ± 0.0074 | 1.88 ± 0.067
GCUGUCACCGGUGUAUUACCCUAGUGGUCGACCGGUCUGAUGAGUCUAUUAUGAGACGAAACAGC | 1.891 ± 0.0046 | 1.48 ± 0.043
GCUGUCACCGGUGUAUUACCCUAGUGGUCGACCGGUCUGAUGAGUCUAUUCAAAGACGAAACAGC | 1.91 ± 0.047 | 1.82 ± 0.038
GCUGUCACCGGUGUAUUACCCUAGUGGUCGACCGGUCUGAUGAGUCUAUUCAGAGACGAAACAGC | 1.87 ± 0.053 | 1.58 ± 0.025
GCUGUCACCGGUGUAUUACCCUAGUGGUCGACCGGUCUGAUGAGUCUAUUCACAGACGAAACAGC | 1.953 ± 0.019 | 1.891 ± 0.0042
